Experimental data from US20210292393A1 (published 2021).

Key:
SARS-CoV-2 spike protein = SARS-CoV-2 spike protein (SARS-CoV-2, UniProt P0DTC2 14-1208)
[1] = molecular target: SARS-CoV-2 spike (S) protein (SARS-CoV-2, UniProt P0DTC2 14-1208)

B1: antibody 448 (antibody, V domains shown)
VH: QVQLVQSGAEVKKPGASVKVSCKASGYTFTSYGISWVRQAPGQGLEWMGWISAYNGNTNYAQKLQGRVTMTTDTSTSTAYMELRSLRSDDTAVYYCAIELLEGFYYYYGMDVWGQGTTVTVSS
VL: SYELTQPPSVSVSPGQTARITCSGDALPKQYAYWYQQKPGQAPVLVIYKDSERPSGIPERFSGSSSGTTVTLTISGVQAEDEADYYCQSADSSGTYPYVVFGGGTKLTVL
Kd (SARS-CoV-2 spike protein): 37.5 nM | koff (SARS-CoV-2 spike protein): 0.000692 s⁻¹ | kon (SARS-CoV-2 spike protein): 18500 M⁻¹ s⁻¹

B2: antibody 394 (antibody, V domains shown)
VH: QVQLVQSGAEVKKPGASVKVSCKASGYTFTGYYMHWVRQAPGQGLEWMGWINPNNGGTNSAQKFQGRVTMTRDTSISTAYMELNRLRSDDTAVYYCARDITTTAGTDYYYGMDVWGQGTTVTVSS
VL: SYELTQPPSVSVSPGQTARITCSGDALPKQYAYWYQQKPGQAPVLVICKDSERPSGIPERFSGSSSGTTVTLTISGVQAEDEADYYCQSADSSGTYIVFGTGTKVTVL
Kd (SARS-CoV-2 spike protein): 1.32 nM | koff (SARS-CoV-2 spike protein): 3.52e-05 s⁻¹ | kon (SARS-CoV-2 spike protein): 26600 M⁻¹ s⁻¹

B3: antibody 441 (antibody, V domains shown)
VH: EVQLVESGGGVVRPGGSLRLSCAASGFTFGDYGMSWVRQAPGKGLEWVSGINWNGGSTGYADSVKGRFTISRDNAKNSLYLQMNSLRAEDTALYYCASDLVRGVIGFDYWGQGTLVTVSS
VL: SYELTQPPSVSVSPGQTARITCSGDALPKQYAYWYQQKPGQAPVLVIYKDSERPSGIPERFSGSSSGTTVTLTISGVQAEDEADYYCQSADSSGITGVFGGGTKLTVL
Kd (SARS-CoV-2 spike protein): 3.46 nM | koff (SARS-CoV-2 spike protein): 0.000318 s⁻¹ | kon (SARS-CoV-2 spike protein): 91900 M⁻¹ s⁻¹

B4: antibody 440 (antibody, V domains shown)
VH: EVQLLESGGGLVQPGGSLRLSCAASGFTFSSYAMSWVRQAPGKGLEWVSAISGSGVNTYHADSVKGRFTISRDNSRNTLYLQMSSLTAEDTAAYYCAKDFEAASGAYYYYGMDVWGQGTTVTVSS
VL: SYELTQPPSVSVSPGQTARITCSGDALPDQYAYWYQQKPGQAPVVVIYKDRERPSGIPERFSGSNSGTTVTLTISGVQAEDEADYYCQSADSSATYVVFGGGTKLTVL
Kd (SARS-CoV-2 spike protein): 7.93 nM | koff (SARS-CoV-2 spike protein): 0.000291 s⁻¹ | kon (SARS-CoV-2 spike protein): 36700 M⁻¹ s⁻¹

B5: antibody 397 (antibody, V domains shown)
VH: QVQLVESGGGVVQPGRSLRLSCAASGFTFSSYGMHWVRQAPGKGLESVAVISYDGSNKYYADSVKGRFTISRDNSKNTLYLQMNSLRAEDTAVYYCAKEGQWELQGNAFDIWGQGTMVTVSS
VL: SYELTQPPSVSVSPGQTARITCSGDALPKQYAYWYQQKPGQAPVLVIYKDSERPSGIPERFSGSSSGTTVTLTISGVQAEDEADYYCQSGDSSGTYRVFGGGTKLTVL
Kd (SARS-CoV-2 spike protein): ≤ 0.0169 nM | koff (SARS-CoV-2 spike protein): ≤ 1e-05 s⁻¹ | kon (SARS-CoV-2 spike protein): 591000 M⁻¹ s⁻¹

B6: antibody 400 (antibody, V domains shown)
VH: QVQLVESGGGVVQPGRSLRLSCAASGFTFSSYGMHWVRQAPGKGLEWVAVISYDGSNKYYADSVKGRFTISRDNSKNTLYLQMNSLRAEDTAVYYCAKAIDILTGYGPGGMDVWGQGTTVTVSS
VL: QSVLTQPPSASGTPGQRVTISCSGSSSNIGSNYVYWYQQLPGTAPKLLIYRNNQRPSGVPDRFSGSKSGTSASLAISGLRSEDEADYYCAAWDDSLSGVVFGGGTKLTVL
Kd (SARS-CoV-2 spike protein): 1.28 nM | koff (SARS-CoV-2 spike protein): 0.000624 s⁻¹ | kon (SARS-CoV-2 spike protein): 488000 M⁻¹ s⁻¹

B7: antibody 391 (antibody, V domains shown)
VH: EVQLVESGGGLVQPGGSLRLSCAASGFTFSSYWMHWVRQAPGKGLVWVSRINSDGSSTSYADSVKGRFTISRDNAKNTLYLQMNSLRAEDTAVYYCALGPLDIVGSYYYYGMDVWGQGTTVTVSS
VL: NFMLTQPHSVSESPGKTVTISCTGSSGSIASNYVQWYQQRPGSAPTTVIYEDNQRPSGVPDRFSGSIDSSSNSASLTISGLKTEDEADYYCQSYDSSNQDVVFGGGTKLTVL
Kd (SARS-CoV-2 spike protein): ≤ 0.37 nM | koff (SARS-CoV-2 spike protein): ≤ 1e-05 s⁻¹ | kon (SARS-CoV-2 spike protein): 27000 M⁻¹ s⁻¹

B8: antibody 402 (antibody, V domains shown)
VH: QVQLVQSGAEVKKPGASVKVSCKVSGYTLTELSMHWVRQAPGKGLEWMGGFDPEDVETIYAQKFQGRVTMTEDTSTDTAYMELSSLRSEDTAVYYCATGVAVVGTSHSYYYYYGMDVWGQGTTVTVSS
VL: DIQMTQSPSSLSASVGDRVTITCRASQGISNYLAWYQQKPGKVPKLLIYAASTLQSGVPSRFSGSGSGTDFTLTISSLQPEDVATYYCQKYNSAPFTFGPGTKVDIK
Kd (SARS-CoV-2 spike protein): 2.14 nM | koff (SARS-CoV-2 spike protein): 6.48e-05 s⁻¹ | kon (SARS-CoV-2 spike protein): 30400 M⁻¹ s⁻¹

B9: antibody 451 (antibody, V domains shown)
VH: EVQLVESGGGLVQPGGSLRLSCAASGFTFSTYWMSWVRQAPGKGLEWVANIKQDGSEKYYVDSVKGRFTISRDNAKNSLYLQMNSLRAEDTAVYYCARLGGSSWYFDYWGQGTLVTVSS
VL: not shown
Kd (SARS-CoV-2 spike protein): 0.429 nM | koff (SARS-CoV-2 spike protein): 6.02e-05 s⁻¹ | kon (SARS-CoV-2 spike protein): 140000 M⁻¹ s⁻¹

B10: antibody 453 (antibody, V domains shown)
VH: QVQLVESGGGVVQPGRSLRLSCAASGFTFSSYAMYWVRQAPGKGLEWVAVISYDGSNKYYADSVKGRFTISRDNSKNTLYLQMNSLRAEDTAVYYCARDRPHYYGSGRKILNLYGMDVWGQGTTVTVSS
VL: DIQLTQSPSFLSASVGDRVTITCRASQGISSYLAWYQQKPGKAPKLLIYAASTLQSGVPSSFSGSGSGTEFTLTISSLQPEDFATYYCQQLNSYPPFTFGPGTKVDIK
Kd (SARS-CoV-2 spike protein): 1.61 nM | koff (SARS-CoV-2 spike protein): 0.000154 s⁻¹ | kon (SARS-CoV-2 spike protein): 95600 M⁻¹ s⁻¹

B11: antibody 358 (antibody, V domains shown)
VH: QVQLVESGGGVVQPGRSLRLSCAASGFNLNSYAMHWVRQASGKGLEWVSLMSYDGSIKYYADSVKGRFTVSGDNSRNTLFLQMNSLRPDDSALYYCVRGGVSGPNSFDLWGQGTTVTVSS
VL: DVVMTQSPLSLPVTLGQPASISCRSSQSLVYSDGSTYVNWFQQRPGQSPRRLIYKVSNRDSGVPDRFSGSGSGTDFALKISRVEAEDVGVYYCMQGTHWPVTFGQGTKVEIK
Kd [1]: 1.69 nM | koff [1]: 0.000487 s⁻¹ | kon [1]: 289000 M⁻¹ s⁻¹

B12: antibody 449 (antibody, V domains shown)
VH: not shown
VL: QSALTQPASVSGSPGQSITISCTGTSSDVGGYNYVSWYQQHPGKAPKLMIYEVSNRPSGVSNRFSGSKSGNTASLTISGLQAEDEADYYCSSYTSSSTVVFGGGTKLTVL
Kd (SARS-CoV-2 spike protein): 9.17 nM | koff (SARS-CoV-2 spike protein): 0.000526 s⁻¹ | kon (SARS-CoV-2 spike protein): 57400 M⁻¹ s⁻¹

B13: antibody 399 (antibody, V domains shown)
VH: QVQLVQSGAEVKKPGASVKVSCKASGYTFTSYGISWVRQAPGQGLEWMGWISAYNGNTNYAQKLQGRVTMTTDTSTSTAYMELRSLRSDDTAVYYCARDSGYDWAGGHYYYYGMDVWGQGTTVTVSS
VL: QSALTQPASVSGSPGQSITISCTGTSSDVGGYNYVSWYQQHPGKAPKLMIYEVSNRPSGVSNRFSGSKSGNTASLTISGLQAEDEADYYCSSYTSSSTLVVFGGGTKLTVL
Kd (SARS-CoV-2 spike protein): ≤ 0.315 nM | koff (SARS-CoV-2 spike protein): ≤ 1e-05 s⁻¹ | kon (SARS-CoV-2 spike protein): 31700 M⁻¹ s⁻¹

B14: antibody 415 (antibody, V domains shown)
VH: QVQLVESGGGVVQPGRSLRLSCAASGFTFSSYAMHWVRQAPGKGLEWVAVISYDGSNKYYADSVKGRFTISRDNSKNTLYLQMNSLRAEDTAVYYCAKTRGGSYFDAFDIWGQGTMVTVSS
VL: not shown
Kd (SARS-CoV-2 spike protein): ≤ 0.0125 nM | koff (SARS-CoV-2 spike protein): ≤ 1e-05 s⁻¹ | kon (SARS-CoV-2 spike protein): 802000 M⁻¹ s⁻¹

B15: antibody 387 (antibody, V domains shown)
VH: QVQLVESGGGVVQPGRSLRLSCAASGFTFSSYGMHWVRQAPGKGLEWVAVISYDGSNKYYADSVKGRFTISRDNSKNTLYLQMNSLRAEDTAVYYCAKDDTKNYGDLDIDYWGQGTLVTVSS
VL: SYELTQPSSVSVSPGQTARITCSGDVLAKKYARWFQQKPGQAPVLVIYKDSERPSGIPERFSGSSSGTTVTLTISGAQVEDEADYYCYSAADNNLGVFGGGTKLTVL
Kd [1]: 37.4 nM | koff [1]: 0.000808 s⁻¹ | kon [1]: 21600 M⁻¹ s⁻¹

B16: antibody 433 (antibody, V domains shown)
VH: QVQLVESGGGVVQPGRSLRLSCAASGFTFSSYAMHWVRQAPGKGLEWVAVISYDGSNKYYADSVKGRFTISRDNSKNTLYLQMNSLRAEDTAVYYCAKDYEVVIAIGGPGAFDYWGQGTLVTVSS
VL: SYVLTQPPSVSVAPGKTARITCGGNNIGSKSVHWYQQKPGQAPVLVIYYDSDRPSGIPERFSGSNSGNTATLTISRVEAGDEADYYCQVWDSSSDHVVFGGGTKLTVL
Kd (SARS-CoV-2 spike protein): 2.8 nM | koff (SARS-CoV-2 spike protein): 0.000349 s⁻¹ | kon (SARS-CoV-2 spike protein): 125000 M⁻¹ s⁻¹

B17: antibody 359 (antibody, V domains shown)
VH: QVQLVESGGGVVQPGRSLRLSCAASGFTFSSYAMHWVRQAPGKGLEWVAVISYDGSNKYYADSVKGRFTISRDNSKNTLYLQMNSLRAEDTAVYYCAYSGNYWYFDLWGRGTLVTVSS
VL: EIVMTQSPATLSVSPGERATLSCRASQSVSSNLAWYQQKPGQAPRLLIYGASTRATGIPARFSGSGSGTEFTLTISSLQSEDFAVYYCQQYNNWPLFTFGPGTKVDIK
Kd [1]: 0.441 nM | koff [1]: 6.67e-05 s⁻¹ | kon [1]: 151000 M⁻¹ s⁻¹

B18: antibody 393 (antibody, V domains shown)
VH: QVQLVESGGGVVQPGRSLRLSCAASGFTFSSYAMHWVRQAPGQGLEWVAVISYDGSNKYYADSVKGRFTISRDNSKNTLYLQMNSLRAEDTAVYYCARAGSGSRHYYGMDVWGQGTTVTVSS
VL: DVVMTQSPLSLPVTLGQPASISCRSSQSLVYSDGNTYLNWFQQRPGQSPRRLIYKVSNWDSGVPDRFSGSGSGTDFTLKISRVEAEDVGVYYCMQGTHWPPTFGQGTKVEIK
Kd (SARS-CoV-2 spike protein): 0.313 nM | koff (SARS-CoV-2 spike protein): 2.95e-05 s⁻¹ | kon (SARS-CoV-2 spike protein): 94100 M⁻¹ s⁻¹

B19: antibody 410 (antibody, V domains shown)
VH: QVQLVQSGAEVKKPGASVKVSCKASGYTFTSYGISWVRQAPGQGLEWMGWISAYNGNTNYAQKLQGRVTMTTDTSTSTAYMELRSLRSDDTAVYYCARGRITIFGVEYYYGMDVWGQGTTVTVSS
VL: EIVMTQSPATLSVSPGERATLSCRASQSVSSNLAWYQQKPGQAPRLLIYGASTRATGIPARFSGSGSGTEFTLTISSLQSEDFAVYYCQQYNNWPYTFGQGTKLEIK
Kd (SARS-CoV-2 spike protein): 2.05 nM | koff (SARS-CoV-2 spike protein): 0.000329 s⁻¹ | kon (SARS-CoV-2 spike protein): 161000 M⁻¹ s⁻¹

B20: antibody 381 (antibody, V domains shown)
VH: QVQLVESGGGVVQPGRSLRLSCAASGFTFSSYAMHWVRQAPGKGLEWVAVISYDGSNKYYADSVKGRFTISRDNSKNTLYLQMNSLRAEDTAVYYCARDRQYYDILTGYYLPTSEYYFDYWGQGTLVTVSS
VL: DIQMTQSPSSVSASVGDRVTITCRASQGISSWLAWYQQKPGKAPKLLIYAASSLQSGVPSRFSGSGSGTDFTLTISSLQPEDFATYYCQQANSFPPTFGGGTKVEIK
Kd [1]: 6.66 nM | koff [1]: 0.000207 s⁻¹ | kon [1]: 31100 M⁻¹ s⁻¹

B21: antibody 360 (antibody, V domains shown)
VH: QVQLVESGGGVVQPGRSLRLSCAASGFTFSSYAMHWVRQAPGKGLEWVAVISYDGSNKYYADSVKGRFTISRDNSKNTLYLQMNSLRAEDTAVYYCAKGKNSGSYFFAFDIWGQGTMVTVSS
VL: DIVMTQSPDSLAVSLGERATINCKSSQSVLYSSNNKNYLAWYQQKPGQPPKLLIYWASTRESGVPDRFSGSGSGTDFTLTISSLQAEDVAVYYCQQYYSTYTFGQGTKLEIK
Kd [1]: 1.4 nM | koff [1]: 0.000145 s⁻¹ | kon [1]: 104000 M⁻¹ s⁻¹

B22: antibody 368 (antibody, V domains shown)
V domain 1: QITLKESGPTLVKPTETLTLTCAFSGFSLTKTGEAAGWIRQAPGRALEWVTVIFWDDDKRYSPSLQNRLTVTKDTSKNVVVLTMTNVDPVDTATYFCWAMGGPGKEFFGQGTRVAVSS
V domain 2: QSVLTQPPSVSGAPGQRVTVSCTGTSSSIGPYSDVHWYQHIPGKAPRLLIFGTSNRPSGVPARFSGSKSGSSASLVIAGLQAEDEADYYCQSYDSSLGEIYVFGTGTTVTVL
Kd [1]: 12.7 nM | koff [1]: 0.000486 s⁻¹ | kon [1]: 38100 M⁻¹ s⁻¹
